First the molecules themselves.
B1: Cyno FcRn (receptor, Cynomolgus)
chain 1: AESHLSLLYHLTAVSSPAPGTPAFWVSGWLGPQQYLSYDSLRGQAEPCGAWVWENQVSWYWEKETTDLRIKEKLFLEAFKALGGKGPYTLQGLLGCELSPDNTSVPTAKFALNGEEFMNFDLKQGTWGGDWPEALAISQRWQQQDKAANKELTFLLFSCPHRLREHLERGRGNLEWKEPPSMRLKARPGNPGFSVLTCSAFSFYPPELQLRFLRNGMAAGTGQGDFGPNSDGSFHASSSLTVKSGDEHHYCCIVQHAGLAQPLRVELETPAKSS
chain 2: IQRTPKIQVYSRHPPENGKPNFLNCYVSGFHPSDIEVDLLKNGEKMGKVEHSDLSFSKDWSFYLLYYTEFTPNEKDEYACRVNHVTLSGPRTVKWDRDM
notes: also called Cynomolgus FcRn; purified Cyno FcRn
B2: anti-C5 mAb FMEH-IgG4PLA (antibody)
heavy: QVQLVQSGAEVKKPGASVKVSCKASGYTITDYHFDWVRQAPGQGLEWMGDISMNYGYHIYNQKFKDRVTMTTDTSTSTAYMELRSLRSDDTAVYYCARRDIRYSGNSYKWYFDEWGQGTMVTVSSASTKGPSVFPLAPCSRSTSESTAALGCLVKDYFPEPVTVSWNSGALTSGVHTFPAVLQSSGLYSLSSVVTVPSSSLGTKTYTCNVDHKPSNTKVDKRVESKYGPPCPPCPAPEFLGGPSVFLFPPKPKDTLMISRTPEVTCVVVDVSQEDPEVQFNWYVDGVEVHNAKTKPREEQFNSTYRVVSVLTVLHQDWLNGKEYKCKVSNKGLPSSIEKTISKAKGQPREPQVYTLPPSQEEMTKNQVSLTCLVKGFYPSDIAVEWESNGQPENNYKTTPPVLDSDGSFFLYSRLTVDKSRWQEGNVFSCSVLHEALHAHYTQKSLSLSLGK
light: DIQLTQSPSFLSASVGDRVTITCRTSKSISKHLAWYQQKPGKAPKLLIYSGSTLQSGVPSRFSGSGSGTEFTLTISSLQPEDFATYYCQQHNEYPYTFGQGTKLEIK
notes: also called FMEH PLA; FMEH-PLA; not shown: human light chain constant region

Assay [1] has as its target T1, anti-C5 mAb/FH SCR1-5 fusion protein FMEH-IgG4PLA-FH1-5 (human, UniProt P08603 19-322, limits assumed).
T1 construct: domain: SCR 1-5; also called FMEH-FH1-5; FMEH-IgG4PLA-FH SCR1-5; not shown: human light chain constant region
Briefly: SPR (Biacore-3000), Cyno FcRn amine-coupled on CM5 chip (200 RU), fusion protein as analyte, pH 6.0, bivalent binding model.

The target in assay [2] is B1. Description: SPR (Biacore-3000), Cyno FcRn amine-coupled on CM5 chip (200 RU), antibody as analyte, pH 6.0, bivalent binding model.
Experimental: Purified Cyno FcRn was coupled onto CM5 chip using the amine coupling method(200RU). Biacore analysis was performed on a Biacore-3000 instrument. The chip was regenerated between each binding using 7.4 pH Buffer.
Affinity analysis of FMEH-IgG4PLA and FMEH-IgG4PLA-FH1-5 to human or Cynomolgus FcRn: Surface Plasmon resonance analysis was used to measure the association and dissociation rate constant for binding of FMEH-IgG4PLA and FMEH-IgG4PLA-FH1-5 to immobilized human or Cyno FcRn, using BIAcore 3000 instrument (Biacore AB, Uppsala, Sweden) and all Biacore experiments were performed at 25° C. The carboxylated dextran matrix of a CM5 sensor chip was used to couple the purified human or Cyno FcRn, by amine coupling chemistry to obtain 280 RU or 200 RU surface density, respectively. […] The data were analyzed by the BIA evaluation software 3.2 assuming bivalent binding model.
For assay [3], the target named is T2, human FcRn (human, UniProt P55899 24-297; P61769 21-119, limits assumed).
T2 construct: also called purified human FcRn
T2 sequence (P61769 21-119 limits assumed, form in doubt, one chain of several): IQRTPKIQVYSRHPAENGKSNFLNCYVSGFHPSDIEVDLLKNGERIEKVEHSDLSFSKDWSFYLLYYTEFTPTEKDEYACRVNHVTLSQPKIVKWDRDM
Briefly: SPR (Biacore-3000), human FcRn amine-coupled on CM5 chip (280 RU), antibody as analyte, pH 6.0, bivalent binding model. Background: SPR reads the build-up and loss of mass on a sensor chip optically.
Experimental: Biacore analysis was performed on a Biacore-3000 instrument. The chip was regenerated between each binding using 7.4 pH Buffer.
The carboxylated dextran matrix of a CM5 sensor chip was used to couple the purified human or Cyno FcRn, by amine coupling chemistry to obtain 280 RU or 200 RU surface density, respectively. […] The data were analyzed by the BIA evaluation software 3.2 assuming bivalent binding model.

T1 sequence (P08603 other isoform, or with tags, fused parts or gaps limits assumed): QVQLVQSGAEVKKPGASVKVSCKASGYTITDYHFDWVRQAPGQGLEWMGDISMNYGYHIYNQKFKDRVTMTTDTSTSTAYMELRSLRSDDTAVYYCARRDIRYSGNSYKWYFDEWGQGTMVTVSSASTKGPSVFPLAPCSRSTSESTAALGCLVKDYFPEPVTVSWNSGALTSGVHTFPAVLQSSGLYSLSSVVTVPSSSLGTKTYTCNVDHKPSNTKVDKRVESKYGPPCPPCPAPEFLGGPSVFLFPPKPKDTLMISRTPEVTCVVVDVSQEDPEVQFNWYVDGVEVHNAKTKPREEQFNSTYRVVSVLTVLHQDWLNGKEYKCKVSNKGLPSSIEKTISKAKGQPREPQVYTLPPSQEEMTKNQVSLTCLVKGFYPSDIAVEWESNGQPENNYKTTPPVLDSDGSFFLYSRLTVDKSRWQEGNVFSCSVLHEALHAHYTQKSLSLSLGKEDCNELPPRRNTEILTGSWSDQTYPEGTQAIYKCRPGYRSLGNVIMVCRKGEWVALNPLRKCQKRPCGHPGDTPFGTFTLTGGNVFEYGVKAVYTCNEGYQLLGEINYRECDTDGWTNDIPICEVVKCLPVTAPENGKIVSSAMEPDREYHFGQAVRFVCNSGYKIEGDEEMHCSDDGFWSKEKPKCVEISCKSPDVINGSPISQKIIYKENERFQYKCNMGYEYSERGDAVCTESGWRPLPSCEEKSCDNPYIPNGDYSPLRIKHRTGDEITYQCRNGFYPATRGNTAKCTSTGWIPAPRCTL

With B1, the Kd in assay [1] stood at 39.1 nM.

As to B2, the Kd in assay [2] came to 14 nM; in assay [3] it was 6.47 nM.

For the origin of these results see patent US20220204602A1 (University of Pennsylvania, published 2022).
